Positions count from the first letter of the chain named. Names may count otherwise.
B1: PeAAO1 (Pleurotus eryngii; K583E/Q584R) (protein)
chain: ADFDYVVVGAGNAGNVVAARLTEDPDVSVLVLEAGVSDENVLGAEAPLLAPGLVPNSIFDWNYTTTAQAGYNGRSIAYPRGRMLGGSSSVHYMVMMRGSTEDFDRYAAVTGDEGWNWDNIQQFVRKNEMVVPPADNHNTSGEFIPAVHGTNGSVSISLPGFPTPLDDRVLATTQEQSEEFFFNPDMGTGHPLGISWSIASVGNGQRSSSSTAYLRPAQSRPNLSVLINAQVTKLVNSGTTNGLPAFRCVEYAEQEGAPTTTVCAKKEVVLSAGSVGTPILLQLSGIGDENDLSSVGIDTIVNNPSVGRNLSDHLLLPAAFFVNSNQTFDNIFRDSSEFNVDLDQWTNTRTGPLTALIANHLAWLRLPSNSSIFQTFPDPAAGPNSAHWETIFSNQWFHPAIPRPDTGSFMSVTNALISPVARGDIKLATSNPFDKPLINPQYLSTEFDIFTMIQAVKSNLRFLSGQAWADFVIRPFDPRLRDPTDDAAIESYIRDNANTIFHPVGTASMSPRGASWGVVDPDLKVKGVDGLRIVDGSILPFAPNAHTQGPIYLVGERGADLIKADQ
notes: secreted glycoprotein from P. pastoris X-33 (codon-optimised gene in pPICZA); signal peptide removed; theoretical 61 kDa, about 100 kDa on SDS-PAGE, 70 kDa deglycosylated; only mutants expressed (ER, NER, AER)
B2: PeAAO1 (Pleurotus eryngii; D361N/K583E/Q584R) (protein)
chain: B1 chain with D334N
notes: as for B1
B3: PeAAO1 (Pleurotus eryngii; K583E/Q584R/V367A) (protein)
chain: B1 chain with V340A
notes: as for B1

Assays:
PeAAO1 [1] = molecular target: T1, PeAAO1 (Pleurotus eryngii, UniProt O94219, K583E/Q584R); assay: flavin absorption spectrum; FAD released on heat denaturation; assay type: binding; details: non-covalently bound; absorbance maxima 463 and 383 nm
T1 construct: gene aao; secreted glycoprotein from P. pastoris X-33 (codon-optimised gene in pPICZA); signal peptide removed; theoretical 61 kDa, about 100 kDa on SDS-PAGE, 70 kDa deglycosylated; only mutants expressed (ER, NER, AER)

PeAAO1 [2] = molecular target: T2, PeAAO1 (Pleurotus eryngii, UniProt O94219, D361N/K583E/Q584R); assay: as above; assay type: binding; details: non-covalently bound; absorbance maxima 463 and 383 nm
T2 construct: gene aao; secreted glycoprotein from P. pastoris X-33 (codon-optimised gene in pPICZA); signal peptide removed; theoretical 61 kDa, about 100 kDa on SDS-PAGE, 70 kDa deglycosylated; only mutants expressed (ER, NER, AER)

PeAAO1 [3] = molecular target: T3, PeAAO1 (Pleurotus eryngii, UniProt O94219, V367A/K583E/Q584R); assay: as above; assay type: binding; details: non-covalently bound; absorbance maxima 463 and 383 nm
T3 construct: gene aao; secreted glycoprotein from P. pastoris X-33 (codon-optimised gene in pPICZA); signal peptide removed; theoretical 61 kDa, about 100 kDa on SDS-PAGE, 70 kDa deglycosylated; only mutants expressed (ER, NER, AER)

purified protein = substrate: COc1ccc(CO)cc1OC; assay: purified protein; assay type: biochemical, Pleurotus eryngii; details: 100 mM sodium phosphate pH 6, 25 °C, O2 as co-substrate, glycosylated enzyme

Row | Molecule | flavin absorption spectrum; FAD released on heat denaturation (PeAAO1 [1]) | flavin absorption spectrum; FAD released on heat denaturation (PeAAO1 [2]) | flavin absorption spectrum; FAD released on heat denaturation (PeAAO1 [3]) | Km (purified protein) [µM] | kcat (purified protein) [s⁻¹] | kcat/Km (purified protein) [M⁻¹ s⁻¹]
1 | Cc1cc2nc3c(=O)[nH]c(=O)nc-3n(C[C@H](O)[C@H](O)[C@H](O)COP(=O)(O)OP(=O)(O)OC[C@H]3O[C@@H](n4cnc5c(N)ncnc54)[C@H](O)[C@@H]3O)c2cc1C [FAD] | calculated based on absorbance of the released FAD after heat precipitation of the apoprotein | calculated based on absorbance of the released FAD after heat precipitation of the apoprotein | calculated based on absorbance of the released FAD after heat precipitation of the apoprotein |  |  | 
2 | B1 |  |  |  | 549.0 ± 12.6 | 54.9 ± 0.02 | 100000
3 | B2 |  |  |  | 546.7 ± 5.8 | 68.2 ± 0.05 | 125000
4 | B3 |  |  |  | 541.9 ± 6.4 | 58.5 ± 0.03 | 108000

Source: article PMC8502153, “Two adjacent C-terminal mutations enable expression of aryl-alcohol oxidase from Pleurotus eryngii in Pichia pastoris” (Applied Microbiology and Biotechnology, 2021)
